Data on two molecules can be found in article doi:10.1101/2023.07.20.549950.

What all share (experiment): filter binding
Data set [1] has as its target T1, RBM15 RRM1 (UniProt Q96T37 170-252).
T1 sequence: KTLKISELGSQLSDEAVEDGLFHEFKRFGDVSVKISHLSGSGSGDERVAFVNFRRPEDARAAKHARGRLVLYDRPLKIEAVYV

Data set [2] deals with T2, RBM15 RRM3 (UniProt Q96T37 455-529).
T2 sequence: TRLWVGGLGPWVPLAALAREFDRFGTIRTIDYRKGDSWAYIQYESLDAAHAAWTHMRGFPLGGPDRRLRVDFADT

For data set [3], the target named is T3, RBM15 RRM12 (UniProt Q96T37 170-451).
T3 sequence: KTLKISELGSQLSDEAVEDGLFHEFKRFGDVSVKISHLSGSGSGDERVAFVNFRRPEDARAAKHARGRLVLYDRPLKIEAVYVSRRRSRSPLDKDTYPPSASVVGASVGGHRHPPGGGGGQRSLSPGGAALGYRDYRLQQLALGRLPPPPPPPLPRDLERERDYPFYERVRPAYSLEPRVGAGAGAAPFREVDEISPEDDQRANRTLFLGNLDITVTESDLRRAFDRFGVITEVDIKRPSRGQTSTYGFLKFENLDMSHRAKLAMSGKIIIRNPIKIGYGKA

Data set [4] has as its target T4, RBM15 RRM123 (UniProt Q96T37 170-529).
T4 sequence: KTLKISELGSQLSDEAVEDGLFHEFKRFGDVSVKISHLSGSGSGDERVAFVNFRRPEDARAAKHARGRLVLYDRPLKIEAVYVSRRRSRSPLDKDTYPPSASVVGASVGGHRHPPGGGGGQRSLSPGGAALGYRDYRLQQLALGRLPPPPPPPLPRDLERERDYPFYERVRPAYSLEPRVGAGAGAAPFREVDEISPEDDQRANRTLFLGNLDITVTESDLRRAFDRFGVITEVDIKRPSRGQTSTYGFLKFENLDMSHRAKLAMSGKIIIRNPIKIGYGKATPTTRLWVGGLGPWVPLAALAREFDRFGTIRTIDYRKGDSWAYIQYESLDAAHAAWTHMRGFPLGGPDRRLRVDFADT

The target of data set [5] is T5, RBM15 RRM23 (UniProt Q96T37 374-529).
T5 sequence: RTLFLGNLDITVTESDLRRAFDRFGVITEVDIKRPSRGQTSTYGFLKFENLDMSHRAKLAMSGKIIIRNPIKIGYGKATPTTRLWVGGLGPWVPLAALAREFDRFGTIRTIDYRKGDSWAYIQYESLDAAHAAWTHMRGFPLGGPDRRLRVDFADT

The Kd is a measure of binding affinity in units of concentration. Low readings indicate a tighter complex, high ones a looser complex. As to GGCCAACACUCUGGCCCAUCGGGGUGACGGCC (structured_RNA) [XIST A-repeat stem-loop (32nt)], the Kd in data set [1] was 433 nM; in data set [2] it was ~100 nM; in data set [3] it was 71 nM; in data set [4], 79 nM; in data set [5], 50 nM.
Take GGUUCUUGAAAAGAGGACC (structured_RNA) [FIRRE RRD stem-loop (19nt)]: the Kd is 370 nM in data set [1]; ~100 nM in data set [2]; 184 nM in data set [3]; ~100 nM in data set [4]; 99 nM in data set [5].
